The values that follow come from publication PMC11189558, “Mutations found in cancer patients compromise DNA binding of the winged helix protein STK19”.

For data set [1], the target named is T1, STK19 (31-254) (human, UniProt P49842 31-254). The data set is described as follows: EMSA; n = 4; 20 mM HEPES pH 7.4, 100 mM NaCl, 1 mM MgCl2, 1 mg/ml BSA, 2 mM DTT, 5% glycerol; 30 min on ice; native 5% PAGE in 1X TBE. To be noted: protein: recombinant, tags: GST cleaved, GPLGS left at N-terminus. For orientation: A gel shift assay detects complexes by their altered migration in electrophoresis.

Data set [2] deals with T1, STK19 (31-254). As to the kind of experiment: EMSA; n = 2; 20 mM HEPES pH 7.4, 100 mM NaCl, 1 mM MgCl2, 1 mg/ml BSA, 2 mM DTT, 5% glycerol; 30 min on ice; native 5% PAGE in 1X TBE. Conditions: protein: recombinant; tags: GST cleaved; GPLGS left at N-terminus; label: 5' IRDye 700 on rU30; blunt.

T1 sequence (P49842 31-254): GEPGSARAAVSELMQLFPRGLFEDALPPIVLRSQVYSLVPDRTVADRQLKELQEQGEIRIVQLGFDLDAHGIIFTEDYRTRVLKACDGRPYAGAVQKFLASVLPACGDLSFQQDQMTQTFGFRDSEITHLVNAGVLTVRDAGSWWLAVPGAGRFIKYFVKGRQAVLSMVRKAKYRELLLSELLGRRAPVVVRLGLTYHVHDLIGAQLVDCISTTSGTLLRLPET

B1: dsDNA 30-mer (dT-dA)30 (dsDNA)
DNA 1: TTTTTTTTTTTTTTTTTTTTTTTTTTTTTT
DNA 2: AAAAAAAAAAAAAAAAAAAAAAAAAAAAAA
As a reminder, the Kd is a measure of binding affinity in units of concentration. Turning to B1, the Kd in the data set with STK19 (31-254) [1] (label: 5' IRDye 700 on dT30, blunt) was determined as 2.2 µM.

B2: dsRNA 30-mer (rU-rA)30 (dsRNA)
RNA 1: UUUUUUUUUUUUUUUUUUUUUUUUUUUUUU
RNA 2: B1 DNA 2
As to B2, in the data set with STK19 (31-254) [2], the Kd is 3.2 µM.

B3: ssDNA dT30 (ssDNA)
DNA: B1 DNA 1
With B3, the Kd with STK19 (31-254) [1] (label: 5' IRDye 700) is 14.1 µM.
